Source: article PMC4808650
Where two headings read alike, the source gives them in different places.

Legend:
[1] = target: Chlamydomonas outer arm axonemal dynein, α and β HC complex from strain oda2-t-lc2-bccp (Chlamydomonas reinhardtii) (UniProt Q39565)
[2] = target: Chlamydomonas outer arm axonemal dynein, α and β HC complex from strain oda2-t-lc2-bccp (Chlamydomonas reinhardtii) (UniProt Q39565); remark: listed apart in the source

Chain of UniProt Q39565 (Q39565 whole entry, looked up, one chain of several): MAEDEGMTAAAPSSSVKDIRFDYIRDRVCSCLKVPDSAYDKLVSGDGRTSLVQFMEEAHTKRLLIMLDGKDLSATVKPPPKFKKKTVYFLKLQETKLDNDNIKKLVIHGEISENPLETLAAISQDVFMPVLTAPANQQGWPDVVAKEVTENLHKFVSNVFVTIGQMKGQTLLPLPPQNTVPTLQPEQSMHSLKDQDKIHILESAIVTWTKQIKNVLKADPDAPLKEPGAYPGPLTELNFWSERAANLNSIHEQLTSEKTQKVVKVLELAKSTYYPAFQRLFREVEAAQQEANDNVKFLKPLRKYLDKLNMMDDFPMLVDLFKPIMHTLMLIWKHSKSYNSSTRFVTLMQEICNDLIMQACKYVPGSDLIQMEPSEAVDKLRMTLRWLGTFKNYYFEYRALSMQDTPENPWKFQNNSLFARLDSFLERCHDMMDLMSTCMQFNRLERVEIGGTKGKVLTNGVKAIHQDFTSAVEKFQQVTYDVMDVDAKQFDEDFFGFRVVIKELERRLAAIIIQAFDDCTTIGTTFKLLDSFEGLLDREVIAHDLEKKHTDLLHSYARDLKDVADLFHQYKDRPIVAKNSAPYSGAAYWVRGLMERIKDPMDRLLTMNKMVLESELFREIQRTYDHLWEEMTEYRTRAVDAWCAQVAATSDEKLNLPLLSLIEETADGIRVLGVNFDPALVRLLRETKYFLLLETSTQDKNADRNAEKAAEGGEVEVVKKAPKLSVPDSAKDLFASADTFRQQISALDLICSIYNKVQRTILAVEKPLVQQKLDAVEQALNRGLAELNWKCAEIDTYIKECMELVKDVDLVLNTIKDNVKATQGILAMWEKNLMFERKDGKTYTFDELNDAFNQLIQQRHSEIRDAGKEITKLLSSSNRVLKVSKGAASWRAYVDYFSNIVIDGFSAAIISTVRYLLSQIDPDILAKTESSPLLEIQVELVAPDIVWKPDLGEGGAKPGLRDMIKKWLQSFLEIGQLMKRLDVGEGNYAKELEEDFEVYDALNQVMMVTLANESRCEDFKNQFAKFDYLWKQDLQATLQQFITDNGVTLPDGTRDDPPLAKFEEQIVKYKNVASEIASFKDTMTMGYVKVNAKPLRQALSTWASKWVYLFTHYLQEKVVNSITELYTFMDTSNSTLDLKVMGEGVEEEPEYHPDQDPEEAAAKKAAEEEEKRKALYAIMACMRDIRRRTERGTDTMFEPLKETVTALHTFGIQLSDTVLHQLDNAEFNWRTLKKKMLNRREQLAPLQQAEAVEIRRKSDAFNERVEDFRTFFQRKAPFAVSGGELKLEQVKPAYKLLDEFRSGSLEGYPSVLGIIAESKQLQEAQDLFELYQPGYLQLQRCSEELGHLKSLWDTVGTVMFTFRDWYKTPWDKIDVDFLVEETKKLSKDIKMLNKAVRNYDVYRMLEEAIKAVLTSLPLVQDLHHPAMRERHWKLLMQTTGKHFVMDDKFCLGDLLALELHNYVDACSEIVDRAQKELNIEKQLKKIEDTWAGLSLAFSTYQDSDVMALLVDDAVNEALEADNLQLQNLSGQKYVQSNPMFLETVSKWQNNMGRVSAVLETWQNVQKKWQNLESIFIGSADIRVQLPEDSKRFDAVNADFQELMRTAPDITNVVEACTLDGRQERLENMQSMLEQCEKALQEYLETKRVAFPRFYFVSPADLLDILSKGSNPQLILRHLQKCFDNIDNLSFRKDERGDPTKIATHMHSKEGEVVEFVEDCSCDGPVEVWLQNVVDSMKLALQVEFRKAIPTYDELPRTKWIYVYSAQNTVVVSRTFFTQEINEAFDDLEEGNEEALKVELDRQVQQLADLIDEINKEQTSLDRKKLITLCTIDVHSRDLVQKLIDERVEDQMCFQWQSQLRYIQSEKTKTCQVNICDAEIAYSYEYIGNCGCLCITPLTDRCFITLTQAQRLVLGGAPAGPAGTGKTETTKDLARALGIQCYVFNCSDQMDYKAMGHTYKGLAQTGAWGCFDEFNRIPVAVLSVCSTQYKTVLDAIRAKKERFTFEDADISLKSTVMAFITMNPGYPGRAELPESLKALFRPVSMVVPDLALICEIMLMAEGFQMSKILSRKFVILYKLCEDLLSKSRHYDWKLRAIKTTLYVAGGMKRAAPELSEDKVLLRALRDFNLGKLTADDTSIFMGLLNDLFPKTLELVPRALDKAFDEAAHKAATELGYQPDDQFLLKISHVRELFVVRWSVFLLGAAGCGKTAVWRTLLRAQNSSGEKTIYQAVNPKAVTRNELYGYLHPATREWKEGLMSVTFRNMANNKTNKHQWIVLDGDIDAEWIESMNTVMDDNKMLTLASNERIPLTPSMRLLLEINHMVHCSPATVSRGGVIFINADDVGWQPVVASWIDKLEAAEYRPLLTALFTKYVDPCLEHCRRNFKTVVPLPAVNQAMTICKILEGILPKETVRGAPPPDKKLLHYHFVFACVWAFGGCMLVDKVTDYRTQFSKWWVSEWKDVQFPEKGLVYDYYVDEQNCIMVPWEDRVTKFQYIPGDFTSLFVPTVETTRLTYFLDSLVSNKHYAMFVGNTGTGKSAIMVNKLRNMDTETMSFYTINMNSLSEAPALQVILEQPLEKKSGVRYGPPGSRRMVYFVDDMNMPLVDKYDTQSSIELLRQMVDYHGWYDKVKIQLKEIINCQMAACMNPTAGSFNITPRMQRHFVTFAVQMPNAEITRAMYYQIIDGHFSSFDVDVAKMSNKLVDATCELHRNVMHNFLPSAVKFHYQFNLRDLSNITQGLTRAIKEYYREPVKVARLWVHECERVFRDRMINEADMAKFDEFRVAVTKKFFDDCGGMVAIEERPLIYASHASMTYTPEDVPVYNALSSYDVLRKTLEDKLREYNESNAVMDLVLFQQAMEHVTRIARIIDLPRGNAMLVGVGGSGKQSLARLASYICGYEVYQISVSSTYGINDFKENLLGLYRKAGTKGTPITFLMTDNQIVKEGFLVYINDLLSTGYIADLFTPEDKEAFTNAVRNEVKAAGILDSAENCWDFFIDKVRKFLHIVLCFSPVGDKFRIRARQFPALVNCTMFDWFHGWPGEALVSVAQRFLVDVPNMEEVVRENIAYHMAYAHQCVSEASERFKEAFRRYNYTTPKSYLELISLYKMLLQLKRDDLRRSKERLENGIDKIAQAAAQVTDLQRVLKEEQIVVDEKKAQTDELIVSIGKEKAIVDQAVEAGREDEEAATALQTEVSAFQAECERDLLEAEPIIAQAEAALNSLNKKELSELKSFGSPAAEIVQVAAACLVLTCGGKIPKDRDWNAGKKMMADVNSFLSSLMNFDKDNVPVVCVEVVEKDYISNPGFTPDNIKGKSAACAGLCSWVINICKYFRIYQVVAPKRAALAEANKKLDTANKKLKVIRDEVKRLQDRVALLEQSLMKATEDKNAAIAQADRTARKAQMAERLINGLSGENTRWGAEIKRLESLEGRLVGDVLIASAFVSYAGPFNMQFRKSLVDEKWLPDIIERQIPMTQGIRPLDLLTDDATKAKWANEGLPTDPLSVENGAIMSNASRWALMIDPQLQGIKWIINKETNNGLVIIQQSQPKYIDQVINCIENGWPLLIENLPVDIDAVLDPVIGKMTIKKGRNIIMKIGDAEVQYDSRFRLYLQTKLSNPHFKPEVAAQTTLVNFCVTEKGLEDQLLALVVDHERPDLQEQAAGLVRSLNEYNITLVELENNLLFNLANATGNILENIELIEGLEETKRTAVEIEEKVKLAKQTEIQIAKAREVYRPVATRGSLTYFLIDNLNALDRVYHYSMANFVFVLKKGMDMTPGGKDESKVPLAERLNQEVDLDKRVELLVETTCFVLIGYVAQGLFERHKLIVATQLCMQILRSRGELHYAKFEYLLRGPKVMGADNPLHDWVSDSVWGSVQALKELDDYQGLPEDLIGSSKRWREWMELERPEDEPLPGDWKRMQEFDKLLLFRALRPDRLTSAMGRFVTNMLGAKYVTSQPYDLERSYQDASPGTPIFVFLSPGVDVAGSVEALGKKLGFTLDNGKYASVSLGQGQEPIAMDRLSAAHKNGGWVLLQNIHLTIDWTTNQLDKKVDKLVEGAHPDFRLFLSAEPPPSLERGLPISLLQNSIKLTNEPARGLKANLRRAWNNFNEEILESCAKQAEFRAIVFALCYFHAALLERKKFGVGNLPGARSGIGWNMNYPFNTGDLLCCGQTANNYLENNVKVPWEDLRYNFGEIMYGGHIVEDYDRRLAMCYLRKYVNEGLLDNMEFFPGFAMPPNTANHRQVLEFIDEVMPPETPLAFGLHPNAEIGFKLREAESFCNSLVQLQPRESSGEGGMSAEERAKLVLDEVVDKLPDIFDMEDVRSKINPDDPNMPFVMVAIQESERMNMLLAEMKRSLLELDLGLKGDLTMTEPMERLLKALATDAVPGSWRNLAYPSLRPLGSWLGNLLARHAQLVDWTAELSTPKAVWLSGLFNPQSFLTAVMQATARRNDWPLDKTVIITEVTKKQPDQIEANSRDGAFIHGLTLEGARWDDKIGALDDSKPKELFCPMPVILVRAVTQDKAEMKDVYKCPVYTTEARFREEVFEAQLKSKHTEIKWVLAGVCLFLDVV

Substance | L0 of microtubule gliding (microtubule length at vmax/2) [1] | vmax of microtubule gliding on dynein-coated slides (fit to Eq. 1) [1] | vmax of microtubule gliding on dynein-coated slides (fit to Eq. 1) [2]
Chlamydomonas axonemal microtubules from SIRT2-deacetylated tubulin (complex) | 0.39 μm | 1.66 μm/s | 
Chlamydomonas axonemal microtubules, untreated (complex) | 0.43 μm | 2.09 μm/s | 
porcine brain microtubules, untreated (α-β-tubulin microtubules) (from UniProt P02550 1-451; P02554 1-445) (complex) |  |  | 1.7 μm/s
α-βs-tubulin porcine microtubules (10 μg/mL subtilisin) (from UniProt P02550 1-451) (complex) |  |  | 1.93 μm/s
αs-βs-tubulin porcine microtubules (200 μg/mL subtilisin) (complex) |  |  | 2.27 μm/s
